Columns and labels:
[1] = biological target: T1, human TNFR2 expressed on cells (human, UniProt P20333 23-461); test: cell-based or functional assay
T1 sequence (looked up): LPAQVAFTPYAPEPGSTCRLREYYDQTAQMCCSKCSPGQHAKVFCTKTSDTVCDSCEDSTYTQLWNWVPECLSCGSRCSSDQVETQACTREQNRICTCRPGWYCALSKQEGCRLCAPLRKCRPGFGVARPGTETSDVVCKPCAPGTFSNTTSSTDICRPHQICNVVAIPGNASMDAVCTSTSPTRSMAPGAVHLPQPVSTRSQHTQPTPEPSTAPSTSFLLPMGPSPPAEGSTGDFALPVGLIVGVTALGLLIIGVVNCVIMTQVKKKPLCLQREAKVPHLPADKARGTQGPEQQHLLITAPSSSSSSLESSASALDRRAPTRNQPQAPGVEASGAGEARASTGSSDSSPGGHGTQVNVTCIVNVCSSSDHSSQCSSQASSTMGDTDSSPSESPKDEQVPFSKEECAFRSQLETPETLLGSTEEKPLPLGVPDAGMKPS

[2] = biological target: T2, cynomolgus TNFR2-His tagged protein (cynomolgus, UniProt A0A2K5VET2 132-366); test: ELISA, cynomolgus TNFR2
T2 construct: also called Cyno TNFR2; cynomolgus TNFR2 protein; not shown: His tag
T2 sequence: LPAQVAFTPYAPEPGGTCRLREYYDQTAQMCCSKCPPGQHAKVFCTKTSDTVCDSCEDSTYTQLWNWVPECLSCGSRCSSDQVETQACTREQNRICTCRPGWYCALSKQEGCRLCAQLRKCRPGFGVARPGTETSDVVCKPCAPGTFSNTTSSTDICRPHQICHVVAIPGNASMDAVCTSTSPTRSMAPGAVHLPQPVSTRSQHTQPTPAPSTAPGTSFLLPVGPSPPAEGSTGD

[3] = biological target: T3, human TNFR2-His tagged protein (soluble) (human, UniProt P20333 23-257); test: ELISA, soluble human TNFR2
T3 construct: also called hTNFR2 (soluble); soluble TNFR2-His; not shown: His tag
T3 sequence (looked up): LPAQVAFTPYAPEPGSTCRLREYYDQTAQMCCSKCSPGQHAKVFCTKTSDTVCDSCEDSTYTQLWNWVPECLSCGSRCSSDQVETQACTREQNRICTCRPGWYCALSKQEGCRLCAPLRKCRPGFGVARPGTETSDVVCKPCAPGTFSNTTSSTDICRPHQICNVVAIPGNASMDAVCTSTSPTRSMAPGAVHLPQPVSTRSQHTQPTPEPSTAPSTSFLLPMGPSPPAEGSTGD

[4] = biological target: T4, TNFR2 (as used in the Octet measurement) (UniProt P20333 23-257, limits assumed); test: Octet (BLI), monovalent binding
T4 construct: Probably human soluble TNFR2; the legend says only TNFR2
T4 sequence (looked up): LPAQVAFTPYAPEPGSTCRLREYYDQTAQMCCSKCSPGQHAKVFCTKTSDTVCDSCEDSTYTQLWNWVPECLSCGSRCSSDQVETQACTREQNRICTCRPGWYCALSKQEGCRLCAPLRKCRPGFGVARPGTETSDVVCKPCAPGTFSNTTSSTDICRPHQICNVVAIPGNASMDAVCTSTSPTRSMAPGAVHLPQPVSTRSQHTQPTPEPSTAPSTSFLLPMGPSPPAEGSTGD

TNFR-Fc = biological target: T5, TNFR-Fc (UniProt P20333 23-257, limits assumed); test: TNF-α blocking ELISA (soluble)
T5 construct: Printed only as TNFR-Fc; not shown: Fc part
T5 sequence (looked up): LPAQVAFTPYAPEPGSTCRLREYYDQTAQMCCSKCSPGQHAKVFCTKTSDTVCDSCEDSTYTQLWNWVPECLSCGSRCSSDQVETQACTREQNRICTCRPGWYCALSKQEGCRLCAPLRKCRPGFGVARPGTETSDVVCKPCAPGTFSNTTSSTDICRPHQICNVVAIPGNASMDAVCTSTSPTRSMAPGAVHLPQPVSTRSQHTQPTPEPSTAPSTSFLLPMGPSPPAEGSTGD

death receptor 6 (DR6) = biological target: T6, death receptor 6 (DR6) (UniProt O75509 42-349, limits assumed); test: ELISA on coated DR6, OD 650 nm
T6 sequence (looked up): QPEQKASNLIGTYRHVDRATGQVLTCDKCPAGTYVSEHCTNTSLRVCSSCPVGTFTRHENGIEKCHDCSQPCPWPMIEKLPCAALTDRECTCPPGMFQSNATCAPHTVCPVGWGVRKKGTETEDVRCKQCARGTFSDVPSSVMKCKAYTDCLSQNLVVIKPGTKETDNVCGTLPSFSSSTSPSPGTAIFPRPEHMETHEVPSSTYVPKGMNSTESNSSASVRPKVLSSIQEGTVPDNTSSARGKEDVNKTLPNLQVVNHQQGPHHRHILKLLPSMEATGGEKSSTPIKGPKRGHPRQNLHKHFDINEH
Description: (§1) To test binding to TNFR family members, target proteins were coated on ELISA plates at 1 μg/mL at 4° C. overnight. Plates were washed, blocked, and antibodies were added at indicated concentrations for 1 hour at RT. Positive control antibodies for each protein were used at ˜1 ug/mL. Antibodies were washed and detected with anti-human IgG HRP for 1 hour. Assay was developed using TMB substrate for 10 minutes. For cell-binding, human CD4+ T cells purified from buffy coats were cultured in flat-bottom plates with anti-CD3/CD28 for 24 hours. Cells were harvested and stained for viability, CD4, CD25 and FOXP3. Test antibody staining was detected using anti-human IgG APC. Binding titration of test antibodies was evaluated on CD4+CD25hiFOXP3+ regulatory T cells and plotted as percent binding.

osteoprotegerin (OPG) = biological target: T7, osteoprotegerin (OPG) (UniProt O00300 22-401, limits assumed); test: ELISA on coated OPG, OD 650 nm
T7 sequence (looked up): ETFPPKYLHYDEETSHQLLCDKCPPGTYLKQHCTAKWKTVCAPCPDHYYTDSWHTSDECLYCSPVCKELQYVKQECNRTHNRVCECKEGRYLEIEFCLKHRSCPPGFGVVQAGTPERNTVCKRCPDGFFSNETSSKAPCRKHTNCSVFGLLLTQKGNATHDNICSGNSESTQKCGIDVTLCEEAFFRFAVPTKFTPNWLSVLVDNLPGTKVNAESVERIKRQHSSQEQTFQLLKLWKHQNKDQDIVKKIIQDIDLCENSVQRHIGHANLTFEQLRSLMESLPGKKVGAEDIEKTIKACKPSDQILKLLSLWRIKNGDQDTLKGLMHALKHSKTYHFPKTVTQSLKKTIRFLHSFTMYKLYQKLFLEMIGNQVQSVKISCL
Description: as §1

[5] = biological target: T8, herpesvirus entry mediator (HVEM) (UniProt Q92956 39-202, limits assumed); test: ELISA on coated HVEM, OD 650 nm
T8 sequence (looked up): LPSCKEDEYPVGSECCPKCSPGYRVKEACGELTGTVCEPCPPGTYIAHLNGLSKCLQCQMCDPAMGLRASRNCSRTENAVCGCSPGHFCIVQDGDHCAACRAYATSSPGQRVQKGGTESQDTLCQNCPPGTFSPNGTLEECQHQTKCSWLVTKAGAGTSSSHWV
Description: as §1

CD40 = CD40 (UniProt P25942 21-193, limits assumed); test: ELISA on coated CD40, OD 650 nm
Description: as §1

[6] = biological target: T9, human TNFR1-His tagged protein (human, UniProt P19438 30-211, limits assumed); test: ELISA on coated TNFR1, OD 450 nm
T9 construct: also called soluble human TNFR1; not shown: His tag
T9 sequence (looked up): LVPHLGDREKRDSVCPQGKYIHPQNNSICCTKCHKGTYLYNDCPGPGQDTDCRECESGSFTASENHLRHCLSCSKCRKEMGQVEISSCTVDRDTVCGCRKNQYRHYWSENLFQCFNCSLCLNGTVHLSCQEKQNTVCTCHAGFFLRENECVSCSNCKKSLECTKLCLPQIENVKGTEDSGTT
Description: as §1

[7] = biological target: T1, human TNFR2 expressed on cells; test: flow cytometry, cell-expressed human TNFR2
[8] = biological target: T3, human TNFR2-His tagged protein (soluble); test: ELISA on coated hTNFR2-His, OD 450 nm
[9] = biological target: T1, human TNFR2 expressed on cells; test: cell binding on TNFR2-overexpressing (OE) cells
[10] = biological target: T1, human TNFR2 expressed on cells; test: blocking of biotinylated TNF-α on TNFR2-CHO cells, flow cytometry
Description: TNFR2-overexpressing CHO cells were plated at 100,000 cells per well. Cells were incubated with the indicated antibodies for 30 minutes on ice. […] Cells were analyzed using Cytoflex or MACSQuant flow cytometer. Assay was repeated twice.

[11] = biological target: T1, human TNFR2 expressed on cells; test: flow cytometry on cells expressing human TNFR2, MFI median
[12] = biological target: T1, human TNFR2 expressed on cells; test: Primary Cell Affinity; binding titration on activated human Tregs, flow cytometry
Description: as §1

Sequence of CD40 (P25942 21-193 limits assumed): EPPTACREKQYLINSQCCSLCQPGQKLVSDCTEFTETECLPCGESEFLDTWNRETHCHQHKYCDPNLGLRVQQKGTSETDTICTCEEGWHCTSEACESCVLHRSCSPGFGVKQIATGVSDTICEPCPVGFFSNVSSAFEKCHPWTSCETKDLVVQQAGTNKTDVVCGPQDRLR

B1: humanized antibody h600-25-108 (antibody, V domains shown)
VH: EVQLVESGGGLVQPGGSLRLSCAASGFSLSDYFMTWVRQAPGKGLEWVGIINTGGDSYYATWAKGRFTISRDNSKNTLYLQMNSLRAEDTAVYYCARDTGYGGYDYAGSFDPWGQGTLVTVSS
VL: DIQMTQSPSSVSASVGDRVTITCQASENINSWLAWYQQKPGKAPKLLIYEASKLASGVPSRFSGSGSGTDFTLTISSLQPEDFATYYCQQGYIYIDVGNIFGGGTKVEIK
ADCC EC50 (reporter line) [1]: 1.14 nM
ADCP EC50 [1]: 0.92 nM
EC50 [2]: 0.046 nM
EC50 [3]: 0.105 nM
koff [4]: 0.000233 s⁻¹
kon [4]: 376000 M⁻¹ s⁻¹
IC50 (TNFR-Fc): 1.33 nM
binding result (death receptor 6 (DR6)): no binding (tested: about 67 nM)
binding result (osteoprotegerin (OPG)): no binding (tested: about 67 nM)
binding result [5]: no binding (tested: about 67 nM)
binding result (CD40): no binding (tested: about 67 nM)
binding result [6]: no binding (tested: about 67 nM)
EC50 [7]: 0.31 nM
EC50 (read off the curve) [8]: ~0.1 nM
Kd [9]: 0.0994 nM
IC50 [10]: 0.198 nM
EC50 (read off the curve) [11]: ~0.3 nM
Kd [12]: 0.05 nM

Reference: patent US20220372154A1 (APEXIGEN, published 2022)
